Patent publication US20150017195A1 (WASHINGTON UNIVERSITY, published 2015)

T1: human coxsackie-adenovirus receptor (CAR) stably expressed on CHO-hCAR cells (human, UniProt P78310 20-365)
T1 sequence: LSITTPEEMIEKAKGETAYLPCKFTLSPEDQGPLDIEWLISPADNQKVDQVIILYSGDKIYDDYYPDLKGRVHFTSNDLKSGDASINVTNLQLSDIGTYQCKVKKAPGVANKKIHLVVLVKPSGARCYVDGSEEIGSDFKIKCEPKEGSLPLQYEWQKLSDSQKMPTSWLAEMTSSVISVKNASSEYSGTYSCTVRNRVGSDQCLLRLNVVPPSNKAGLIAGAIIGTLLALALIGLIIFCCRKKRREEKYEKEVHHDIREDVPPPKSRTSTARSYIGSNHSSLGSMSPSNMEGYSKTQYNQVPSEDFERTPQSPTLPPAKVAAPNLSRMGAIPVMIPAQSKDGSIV

B1: Ad5Luc1 control vector containing the HAdV-5 wild type fiber (other)
chain: MKRARPSEDTFNPVYPYDTETGPPTVPFLTPPFVSPNGFQESPPGVLSLRLSEPLVTSNGMLALKMGNGLSLDEAGNLTSQNVTTVSPPLKKTKSNINLEISAPLTVTSEALTVAAAAPLMVAGNTLTMQSQAPLTVHDSKLSIATQGPLTVSEGKLALQTSGPLTTTDSSTLTITASPPLTTATGSLGIDLKEPIYTQNGKLGLKYGAPLHVTDDLNTLTVATGPGVTINNTSLQTKVTGALGFDSQGNMQLNVAGGLRIDSQNRRLILDVSYPFDAQNQLNLRLGQGPLFINSAHNLDINYNKGLYLFTASNNSKKLEVNLSTAKGLMFDATAIAINAGDGLEFGSPNAPNTNPLKTKIGHGLEFDSNKAMVPKLGTGLSFDSTGAITVGNKNNDKLTLWTTPAPSPNCRLNAEKDAKLTLVLTKCGSQILATVSVLAVKGSLAPISGTVQSAHLIIRFDENGVLLNNSFLDPEYWNFRNGDLTEGTAYTNAVGFMPNLSAYPKSHGKTAKSNIVSQVYLNGDKTKPVTLTITLNGTQETGDTTPSAYSMSFSWDWSGHNYINEIFATSSYTFSYIAQE

How the values were obtained:
[1] = biological target: human coxsackie-adenovirus receptor (CAR) stably expressed on CHO-hCAR cells (human) (UniProt P78310)
[2] = biological target: human coxsackie-adenovirus receptor (CAR) stably expressed on CHO-hCAR cells (human) (UniProt P78310); assay: cell-based or functional assay
[3] = biological target: T1, human coxsackie-adenovirus receptor …; assay: cell-based or functional assay

| Molecule | IC50 (read off the curve); inhibition of luciferase gene transfer of Ad5Luc1 into CHO-hCAR cells [1] [µg/mL] | inhibition of Ad5Luc1 gene transfer to CHO-hCAR cells by knob protein at 50 µg/ml [2] [%] | luciferase activity in CHO-hCAR cells versus CHO cells (gene transfer assay) [3] [fold] |
| --- | --- | --- | --- |
| recombinant HAdV-5 fiber knob protein (from UniProt P11818 387-581) | 1 | > 96 | – |
| B1 | – | – | 80 |
